Patent US6383761B1, “Methods and compositions for identifying modulators of G-protein-coupled receptors” (The Regents of the University of California, priority 1997, dated 2002)

Columns and labels:
m2 muscarinic receptor = target: T1, m2 muscarinic receptor (Homo sapiens, UniProt P08172); assay: PI hydrolysis assay (IP1 accumulation) in COS-7 cells co-transfected with receptor and Gαq construct; type: cell-based; settings: carbachol 100 μM, pertussis toxin pretreatment 500 ng/ml
T1 sequence (P08172 1-466): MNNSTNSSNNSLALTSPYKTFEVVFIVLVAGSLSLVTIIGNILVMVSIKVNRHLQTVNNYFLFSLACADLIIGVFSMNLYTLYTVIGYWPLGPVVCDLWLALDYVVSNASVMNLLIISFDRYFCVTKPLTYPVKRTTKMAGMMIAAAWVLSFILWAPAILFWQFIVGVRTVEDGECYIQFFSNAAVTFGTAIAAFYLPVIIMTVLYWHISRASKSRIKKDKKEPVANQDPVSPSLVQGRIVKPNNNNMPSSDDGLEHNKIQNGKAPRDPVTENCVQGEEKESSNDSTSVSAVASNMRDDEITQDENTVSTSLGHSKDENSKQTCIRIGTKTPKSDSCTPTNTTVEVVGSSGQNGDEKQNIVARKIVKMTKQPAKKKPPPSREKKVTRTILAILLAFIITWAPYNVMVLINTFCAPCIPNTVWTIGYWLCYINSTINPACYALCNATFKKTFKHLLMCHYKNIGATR

D2 dopamine receptor = target: T2, D2 dopamine receptor (Homo sapiens, UniProt P14416); type: cell-based
T2 construct: expressed in transfected cells; host or cells: COS-7
T2 sequence (P14416 whole entry): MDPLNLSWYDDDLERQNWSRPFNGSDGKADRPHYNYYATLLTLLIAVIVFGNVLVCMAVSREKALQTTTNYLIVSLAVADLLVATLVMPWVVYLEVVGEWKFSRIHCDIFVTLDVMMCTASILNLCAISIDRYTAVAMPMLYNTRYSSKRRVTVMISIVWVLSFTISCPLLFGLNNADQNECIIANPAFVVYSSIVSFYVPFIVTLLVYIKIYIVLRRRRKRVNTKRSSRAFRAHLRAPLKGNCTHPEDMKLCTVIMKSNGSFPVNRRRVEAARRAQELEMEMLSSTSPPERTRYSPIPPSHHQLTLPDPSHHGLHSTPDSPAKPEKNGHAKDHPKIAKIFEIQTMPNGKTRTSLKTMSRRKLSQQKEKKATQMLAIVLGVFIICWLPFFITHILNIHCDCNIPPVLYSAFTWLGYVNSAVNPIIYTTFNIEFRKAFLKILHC

## pertussis toxin
m2 muscarinic receptor; m2 receptor co-expressed with −6q
  block of agonist-induced PI response: partly blocked
m2 muscarinic receptor; m2 receptor with vector DNA or WTq
  block of agonist-induced increase in inositol phosphate production: almost completely blocked
D2 dopamine receptor
  block of agonist-induced PI response: partly blocked
  block of agonist-induced increase in inositol phosphate production: almost completely blocked
